Results from patent US20040214331A1.

Assays:
[1] = molecular target: synthetic HPV16 virus-like particles (L1 and L2) purified from CV-1 cells infected with pLC201VV (human papillomavirus type 16) (UniProt P03101); assay: ELISA, native VLPs coated in PBS pH 7.5
[2] = molecular target: synthetic HPV16 virus-like particles (L1 and L2) purified from CV-1 cells infected with pLC201VV (human papillomavirus type 16) (UniProt P03101); assay: ELISA, denatured particles coated in carbonate buffer pH 9.6

UniProt P03101, sequence (P03101 whole entry, chain 1 of 2): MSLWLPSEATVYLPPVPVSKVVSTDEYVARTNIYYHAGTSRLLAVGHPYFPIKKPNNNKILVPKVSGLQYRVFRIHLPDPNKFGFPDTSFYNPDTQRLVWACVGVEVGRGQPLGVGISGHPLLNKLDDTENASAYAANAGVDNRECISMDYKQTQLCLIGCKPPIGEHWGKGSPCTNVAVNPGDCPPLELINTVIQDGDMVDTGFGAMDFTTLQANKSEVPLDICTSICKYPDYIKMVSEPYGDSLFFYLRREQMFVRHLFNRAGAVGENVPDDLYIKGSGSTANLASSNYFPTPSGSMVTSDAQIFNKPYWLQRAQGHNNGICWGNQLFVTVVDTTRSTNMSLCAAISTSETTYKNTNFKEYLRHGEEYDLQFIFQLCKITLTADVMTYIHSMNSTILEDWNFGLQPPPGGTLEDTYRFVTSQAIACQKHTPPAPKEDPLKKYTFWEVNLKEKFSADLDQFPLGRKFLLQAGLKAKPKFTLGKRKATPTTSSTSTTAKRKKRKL
UniProt P03101, sequence (P03107 whole entry, chain 2 of 2, further chain): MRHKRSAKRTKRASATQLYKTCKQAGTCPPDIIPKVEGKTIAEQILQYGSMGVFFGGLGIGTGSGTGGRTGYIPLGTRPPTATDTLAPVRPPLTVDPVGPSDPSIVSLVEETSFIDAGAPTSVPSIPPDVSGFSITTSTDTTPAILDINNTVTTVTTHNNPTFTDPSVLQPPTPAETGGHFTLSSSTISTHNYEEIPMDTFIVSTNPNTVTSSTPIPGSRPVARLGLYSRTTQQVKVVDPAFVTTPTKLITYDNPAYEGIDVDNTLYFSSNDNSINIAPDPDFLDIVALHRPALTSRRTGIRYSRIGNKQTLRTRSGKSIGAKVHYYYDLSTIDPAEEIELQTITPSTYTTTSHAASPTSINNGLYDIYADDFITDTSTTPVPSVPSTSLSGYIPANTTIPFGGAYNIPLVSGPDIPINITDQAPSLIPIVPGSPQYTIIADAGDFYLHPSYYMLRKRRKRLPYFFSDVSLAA

Substance: anti-HPV16 L1 monoclonal antibody Camvir 1
- OD [1]: 0.064 OD
- OD [2]: 0.107 OD
